This note sets out measurements from patent publication US20210230266A1 (SINGAPORE HEALTH SERVICES PTE, published 2021).

Test [1] addresses T1, Human IL-11 (human, UniProt P20809 22-199).
T1 construct: Recombinant human IL-11 (GenScript Cat. No. Z03108-1) or IL-11 secreted by human cells; the mature form is said to have 178 residues; also called recombinant human IL-11; endogenously produced IL-11
T1 sequence: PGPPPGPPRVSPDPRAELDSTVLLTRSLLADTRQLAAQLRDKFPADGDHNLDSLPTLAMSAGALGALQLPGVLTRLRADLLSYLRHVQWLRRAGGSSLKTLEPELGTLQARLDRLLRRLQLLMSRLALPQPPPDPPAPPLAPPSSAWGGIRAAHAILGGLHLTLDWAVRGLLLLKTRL
Description: ELISA. On the procedure: (§1) The soluble scFv were produced by recombinant expression in E. coli, and analysed for their ability to bind to human IL-11 and murine IL-11 by ELISA. Briefly, the respective antigen was coated to wells of an ELISA plate, the cell culture supernatant containing the respective scFv was added at a 1:2 dilution, and binding was detected.

For test [2], the target named is T2, Mouse IL-11 (mouse, UniProt P47873 22-199, limits assumed).
T2 construct: also called murine IL-11; recombinant murine IL-11
T2 sequence (looked up): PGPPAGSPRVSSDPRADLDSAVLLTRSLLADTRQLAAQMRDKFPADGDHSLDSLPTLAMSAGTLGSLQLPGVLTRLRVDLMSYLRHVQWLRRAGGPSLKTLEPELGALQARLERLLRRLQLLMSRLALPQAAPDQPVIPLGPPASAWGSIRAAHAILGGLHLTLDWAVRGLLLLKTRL
Description: ELISA. On the procedure: as §1

The target in test [3] is T1, Human IL-11. Description: cell-based or functional assay.
In test [4] the target is T1, Human IL-11. The test is described as follows: ELISA on coated recombinant human IL-11 (100 ng/well), scFv-Fc. As to the method:
The light chain shuffled anti-IL-11 antibodies were analysed to determine the EC50 for binding to human IL-11 by ELISA according to standard methods. Briefly, wells of microtiter plates were coated with recombinant human IL-11 (100 ng/well), scFv-Fc comprising the VH and VL domains of the clones were added in a dilution series and antibody binding was detected using a polyclonal antibody detection system.
(In an ELISA, binding on a coated surface is turned into a signal by an enzyme label.)

Broadly, the EC50 is the concentration that produces a half-maximal response.

B1: YU100-E10 (antibody)
chain: QVQLVQSGGGVVQPGRSLRLSCAASGFTFSSYGMHWVRQAPGKGLEWVAVISYDGSNKYYADSVKGRFTISRDNSKNTLYLQMNSLRAEDTAVYYCAKIGATDPLDYWGQGTLVTVSSGSASAPKLEEGEFSEARVQSALTQPRSVSGSPGQSVTISCTGTSSDVGGYNYVSWYQQHPGKAPKLMIFDVSQRPSGVPDRFSASKSGNTASLTISGLQAEDEADYYCCSYAGSYTWVFGGGTKLTVL
As for B1, the “hIL11 - average signal” value in test [1] turned out to be 0.338. Moreover, in test [2], the “mIL11 - average signal” value was 0.297. Moreover, in test [3], the “MMP2 production, Experiment 1 (human atrial fibroblasts + TGFB1)” value was 56.1 ng/mL and the “MMP2 production, Experiment 2 (human atrial fibroblasts + TGFB1)” value came to 47 ng/mL. The 50% effective concentration (EC50) in test [4] worked out at 0.033 µg/mL.

B2: YU100-G01 (antibody)
chain: QVQLVQSGGGVVQPGRSLRLSCAASGFTFSSYGMHWVRQAPGKGLEWVAVISYDGSNKYYADSVKGRFTISRDNSKNTLYLQMNSLRAEDTAVYYCAKIGATDPLDYWGQGTLVTVSSGSASAPKLEEGEFSEARVQSALTQPRSVSASPGQSVTISCTGTSSDVGAYNYVSWYQQHPGKAPKLMLYDVNKRPSGVPDRFSGSKSGNTASLTISRLQAEDEADYYCCSYAGSYTWVFGGGTKLTVL
For the molecule B2, in test [1], the “hIL11 - average signal” value stood at 0.205. Also, the “mIL11 - average signal” value in test [2] was determined as 0.31. In test [3], the “MMP2 production, Experiment 1 (human atrial fibroblasts + TGFB1)” value came to 56.6 ng/mL and the “MMP2 production, Experiment 2 (human atrial fibroblasts + TGFB1)” value was found to be 49.7 ng/mL. Moreover, in test [4], the EC50 came out at 0.019 µg/mL.

B3: YU100-F02 (antibody)
chain: EVQLVESGGGVVQPGRSLRLSCAASGFTFSSYGMHWVRQAPGKGLEWVAVISYDGSNKYYADSVKGRFTISRDNSKNTLYLQMNSLRAEDTAVYYCAKIGATDPLDYWGQGTLVTVSSGSASAPKLEEGEFSEARVQSALTQPRSVSGSPGQSVTISCTGTSSDVGGYNYVSWYQQHPGKAPKLMIYDVTKRPSGVPDRFSGSKSGNTASLTISGLQADDEADYYCCSYAGSYTWIFGGGTKLTVL
With B3, in test [1], the “hIL11 - average signal” value came to 0.361. For the same molecule, the “mIL11 - average signal” value in test [2] came out at 0.303. In test [3], the “MMP2 production, Experiment 1 (human atrial fibroblasts + TGFB1)” value turned out to be 51.2 ng/mL and the “MMP2 production, Experiment 2 (human atrial fibroblasts + TGFB1)” value came out at 43.5 ng/mL. The EC50 in test [4] is 0.018 µg/mL.

B4: YU100-F07 (antibody)
chain: QVQLVESGGGVVQPGRSLRLSCAASGFTFSSYAMHWVRQAPGKGLEWVAVISYDGSNKYYADSVKGRFTISRDNSKNTLYLQMNSLRAEDTAVYYCARIMGYDYGDYDVVDYWGQGTLVTVSSGSASAPKLEEGEFSEARVQSALTQPRSVSVSPGQSVTISCTGTSSDVGGYEYVSWYQQHPGKAPKLMIYDVTKRPSGVPDRFSGSKSGNTASLTISGLQGEDAADYYCCSYAGSYTWVFGGGTTVTVL
Turning to B4, the “hIL11 - average signal” value in test [1] amounted to 0.172. The “mIL11 - average signal” value in test [2] is 0.148. Besides, in test [3], the “MMP2 production, Experiment 1 (human atrial fibroblasts + TGFB1)” value was determined as 53.1 ng/mL and the “MMP2 production, Experiment 2 (human atrial fibroblasts + TGFB1)” value came out at 46.6 ng/mL. In addition, in test [4], the EC50 came out at 0.041 µg/mL.

B5: YU100-E07 (antibody)
chain: QVQLQESGGGVVQPGRSLRLSCAASGFTFSSYGMHWVRQAPGKGLEWVAVISYDGSNRYYADSVKGRFAISRDNSKNTLYLQMNSLRAEDTAVYYCAKIGATDPLDYWGQGTLVTVSSGSASAPKLEEGEFSEARVQSALTQPRSVSGSPGQSVTISCTGTSSDVGGYDYVSWYQQHPGKAPELMIYDVTKRPSGVADRFSGSKSGNTASLTISGLQAEDEADYYCCSYAGRYTWVFGGGTKLTVL
Regarding B5, the “hIL11 - average signal” value in test [1] was 0.193. For the same molecule, in test [2], the “mIL11 - average signal” value was found to be 0.247. Besides, in test [3], the “MMP2 production, Experiment 1 (human atrial fibroblasts + TGFB1)” value is 52.1 ng/mL and the “MMP2 production, Experiment 2 (human atrial fibroblasts + TGFB1)” value was 46.5 ng/mL. Further, the concentration giving a half-maximal response (EC50) in test [4] amounted to 0.023 µg/mL.

B6: YU100-E08 (antibody)
chain: QVQLVQSGGGVVQPGRSLRLSCAASGFTFSSYAMHWVRQAPGKGLEWVAVISYDGSNKYYADSVKGRFTISRDNSKNTLYLQMNSLRAEDTAVYYCARIMGYDYGDYDVVDYWGQGTLVTVSSGSASAPKLEEGEFSEARVQSALTQPRSVSGSPGQSVTISCTGTSSDVGGYNYVSWYQQHPGKAPKLMIYDVSRRPSGVPDRFSGSKSGNTASLTISGLQAEDEADYYCCSYAGNYTWMFGGGTKLTVL
On to B6, for which the “hIL11 - average signal” value in test [1] came to 0.214. For the same molecule, in test [2], the “mIL11 - average signal” value turned out to be 0.251. Further, in test [3], the “MMP2 production, Experiment 1 (human atrial fibroblasts + TGFB1)” value worked out at 48.2 ng/mL and the “MMP2 production, Experiment 2 (human atrial fibroblasts + TGFB1)” value came to 59.7 ng/mL. In addition, the half-maximal effective concentration (EC50) in test [4] turned out to be 0.032 µg/mL.

B7: YU100-E09 (antibody)
chain: QVQLVESGGGVVQPGRSLRLSCAASGFTFSSYAMHWVRQAPGKGLEWVAVISYDGSNKYYADSVKGRFTISRDNSKNTLYLQMNSLRAEDTAVYYCARIMGYDYGDYDVVDYWGQGTLVTVSSGSASAPKLEEGEFSEARVQSALTQPRSVSGSPGQSVTISCTGTSSDVGDYDYVSWYQQHPGKAPKLIIYDVTKRPSGIPDRFSGSKSGNTASLTISGLQAEDEADYYCCSYAGSYTWVFGRGTKLTVL
B7: the “hIL11 - average signal” value in test [1] was determined as 0.224. The “mIL11 - average signal” value in test [2] was 0.335. Further, in test [3], the “MMP2 production, Experiment 1 (human atrial fibroblasts + TGFB1)” value was found to be 51.7 ng/mL and the “MMP2 production, Experiment 2 (human atrial fibroblasts + TGFB1)” value was determined as 44.4 ng/mL. For the same molecule, the EC50 in test [4] turned out to be 0.019 µg/mL.

B8: YU100-E11 (antibody)
chain: QVQLVESGGGVVQPGRSLRLSCAASGFTFSSYGMHWVRQAPGKGLEWVAVISYDGSNKYYADSVKGRFTISRDNSKNTLYLQMNSLRAEDTAVYYCARIMGYDYGDYDVVDYWGQGTLVTVSSGSASAPKLEEGEFSEARVQSALTQPRSVSGSPGQSVTISCTGTSSDVGGYNYVSWYQQHPGKAPKLMIYDVSKRPSGVPDRFSGSKSGNTASLTISGLQAEDEADYYCCSYAGSYTWVFGGGTKLTVL
Consider B8, for which the “hIL11 - average signal” value in test [1] was found to be 0.268. For the same molecule, the “mIL11 - average signal” value in test [2] amounted to 0.435. For the same molecule, in test [3], the “MMP2 production, Experiment 1 (human atrial fibroblasts + TGFB1)” value was 49.1 ng/mL and the “MMP2 production, Experiment 2 (human atrial fibroblasts + TGFB1)” value stood at 41.9 ng/mL. Further, in test [4], the concentration giving a half-maximal response (EC50) came out at 0.028 µg/mL.

B9: YU100-E12 (antibody)
chain: QVQLVESGGGVVQPGRSLRLSCAASGFTFSSYGMHWVRQAPGKGLEWVAVISYDGSNKYYADSVKGRFTISRDNSKNTLYLQMNSLRAEDTAVYYCAKIGATDPLDYWGQGTLVTVSSGSASAPKLEEGEFSEARVQSALTQPASVSGSPGQSITISCTGTSSDVGGYNYVSWYQQHPGTAPKLMIYDVSNRPSGVSNRFSGSKSGNTASLTISGLQAEDEADYYCSSYTSSTTWVFGGGTKLTVL
For the molecule B9, the “hIL11 - average signal” value in test [1] is 0.426. For the same molecule, the “mIL11 - average signal” value in test [2] turned out to be 0.5. In test [3], the “MMP2 production, Experiment 1 (human atrial fibroblasts + TGFB1)” value was 56 ng/mL and the “MMP2 production, Experiment 2 (human atrial fibroblasts + TGFB1)” value is 47.9 ng/mL. Further, the EC50 in test [4] came to 0.016 µg/mL.

B10: YU100-F01 (antibody)
chain: QVQLVQSGGGVVQPGRSLRLSCAASGFTFSSYGMHWVRQAPGKGLEWVAVISYDGSNKYYADSVKGRFTISRDNSKNTLYLQMNSLRAEDTAVYYCAKIGATDPLDYWGQGTLVTVSSGSASAPKLEEGEFSEARVQSALTQPASVSGSPGQSITISCTGTGSDVGAYDYVSWYQQHPGKAPKLMIYDVNNRPSGVSNRFSGSKSGNTASLTISGLQAEDEAEYYCSSFATSISWVFGGGTRLTVL
Consider B10, for which the “hIL11 - average signal” value in test [1] amounted to 0.464. In addition, the “mIL11 - average signal” value in test [2] was determined as 0.528. Moreover, in test [3], the “MMP2 production, Experiment 1 (human atrial fibroblasts + TGFB1)” value is 52.8 ng/mL and the “MMP2 production, Experiment 2 (human atrial fibroblasts + TGFB1)” value worked out at 39.9 ng/mL. Further, in test [4], the concentration giving a half-maximal response (EC50) is 0.018 µg/mL.

B11: YU100-G10 (antibody)
chain: QVQLVQSGGGVVQPGRSLRLSCAASGFTFSSYGMHWVRQAPGKGLEWVAVISYDGSNKYYADSVKGRFTISRDNSKNTLYLQMNSLRAEDTAVYYCAKIGATDPLDYWGQGTLVTVSSGSASAPKLEEGEFSEARVQSALTQPASVSGSLGQSITMSCTGTRRDVGGYDFVSWYQQYPGKAPKLIIYDVSNRPSGVSNRFTGSKSGNTASLTISGLQAEDEADYYCCSYAGTYTWVFGGGTKVTVL
With B11, the “hIL11 - average signal” value in test [1] was determined as 0.262. Besides, the “mIL11 - average signal” value in test [2] was 0.404. Besides, in test [3], the “MMP2 production, Experiment 1 (human atrial fibroblasts + TGFB1)” value was 54 ng/mL and the “MMP2 production, Experiment 2 (human atrial fibroblasts + TGFB1)” value amounted to 45.4 ng/mL. The EC50 in test [4] came to 0.034 µg/mL.

B12: YU100-F11 (antibody, V domains shown)
VH: QVQLVESGGGVVQPGRSLRLSCAASGFTFSSYGMHWVRQAPGKGLEWVAVISYDGSNKYYADSVKGRFTISRDNSKNTLYLQMNSLRAEDTAVYYCAKIGATDPLDYWGQGTLVTVSS
VL: QSALTQPASVSGSPGQSITISCTGSSSDVAGYNYVSWYQQHPGKAPKLMIYDVTKRPSGVPDRFSGSKSGNTASLTISGLQAEDEADYYCCSYAGSYTWVFGGGTQLTVLG
notes: light chain-shuffled human anti-IL-11 clone
Take B12: the “hIL11 - average signal” value in test [1] came to 0.319. The “mIL11 - average signal” value in test [2] amounted to 0.395. Moreover, in test [3], the “MMP2 production, Experiment 1 (human atrial fibroblasts + TGFB1)” value is 44.5 ng/mL and the “MMP2 production, Experiment 2 (human atrial fibroblasts + TGFB1)” value was found to be 37.6 ng/mL. Moreover, in test [4], the concentration for a half-maximal effect (EC50) was 0.027 µg/mL.
